According to patent US6835382B2, “Ii peptide therapeutics to enhance antigen presentation” (University of Massachusetts, priority 1996, dated 2004):
Non-standard residues stand in square brackets, D forms with d. hArg = N=C(N)NCCCC[C@H](N)C(=O)O; Cit = NC(=O)NCCC[C@H](N)C(=O)O; Orn = NCCC[C@H](N)C(=O)O

Target: T1, murine E^d MHC class II allele (Mus musculus, UniProt P01904+P01915)
T1 sequence (P01904 26-255): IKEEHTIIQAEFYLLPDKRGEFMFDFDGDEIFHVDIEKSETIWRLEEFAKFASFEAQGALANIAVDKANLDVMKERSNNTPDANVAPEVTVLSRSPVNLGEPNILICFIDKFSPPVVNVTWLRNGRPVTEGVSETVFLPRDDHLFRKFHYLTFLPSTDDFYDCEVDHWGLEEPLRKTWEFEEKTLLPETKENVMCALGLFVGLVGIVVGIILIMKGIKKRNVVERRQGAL
T1 sequence (P01915 27-264 limits assumed): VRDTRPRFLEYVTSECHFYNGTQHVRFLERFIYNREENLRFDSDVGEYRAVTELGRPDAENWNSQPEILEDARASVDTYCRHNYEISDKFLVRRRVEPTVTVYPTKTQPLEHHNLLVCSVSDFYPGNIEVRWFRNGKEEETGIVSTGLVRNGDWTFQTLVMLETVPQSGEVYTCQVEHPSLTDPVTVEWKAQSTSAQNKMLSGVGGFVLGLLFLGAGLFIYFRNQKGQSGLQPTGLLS
Experiment: processed antigen assay, E^d allele (APC pulsed with native HEL)
Format: cell-based
Design: The A20 and CH27 B cell lymphoma lines express H-2^d and H-2^k alleles, respectively; endogenous in cells; host or cells: A20 B cell lymphoma (mitomycin C-treated or paraformaldehyde-fixed)
Conditions: AE peptide 64 μM; for T cell response relative to baseline (None = 1.0), 5 μM HEL E^d, first value / T cell response relative to baseline (None = 1.0), 5 μM HEL E^d, second value / T cell response relative to baseline (None = 1.0), 10 μM HEL E^d, first value / T cell response relative to baseline (None = 1.0), 10 μM HEL E^d, second value / T cell response relative to baseline (None = 1.0), 20 μM HEL E^d, first value / T cell response relative to baseline (None = 1.0), 20 μM HEL E^d, second value: Table 29; for T cell response relative to baseline (None = 1.0), 5 μM HEL E^d, first value / T cell response relative to baseline (None = 1.0), 5 μM HEL E^d, second value: native HEL prepulse 5 μM; for T cell response relative to baseline (None = 1.0), 5 μM HEL E^d, first value / T cell response relative to baseline (None = 1.0), 10 μM HEL E^d, first value / T cell response relative to baseline (None = 1.0), 20 μM HEL E^d, first value: supernatant dilution 1:4 (first value); for T cell response relative to baseline (None = 1.0), 5 μM HEL E^d, second value / T cell response relative to baseline (None = 1.0), 10 μM HEL E^d, second value / T cell response relative to baseline (None = 1.0), 20 μM HEL E^d, second value: supernatant dilution 1:8 (second value); for T cell response relative to baseline (None = 1.00), E^d: Table 31; for Activity in processed antigen assay, E^d (baseline = 1.0): Table 34, native HEL 10 μM prepulse, supernatant 1:8
Procedure: In a third type of assay, the “processed antigen assay”, certain of the AE101 series of peptides inhibit stimulation of specific T cell hybridomas by antigenic peptides which are derived from the endogenous processing of a native protein antigen. This assay, which is related to the peptide prepulse assay, is performed by incubating APC with native protein antigen for 8 h, after which the pulsed APC are washed and treated with mitomycin C. Those pulsed APC are then combined with AE101 series peptides and T cell hybridomas and are incubated for 24 h. After that incubation, an aliquot of the culture supernatant is transferred to a second culture to measure T cell stimulation, as reflected in the effect of released interleukins on the growth of an interleukin-dependent, indicator cell line. During the 8 h incubation with native protein antigen, the protein antigen is taken into the APC. The native protein enters the processing pathway within the APC, where it is enzymatically cleaved to peptide fragments. Those peptide fragments with high affinity for the particular MHC class II molecules produced by the APC form antigenic peptide/MHC class II complexes which are transported to the cell surface. At the cell surface, the MHC class II molecules are contacted by the AE101 peptides, which cause the release of the antigenic peptide by the same mechanism proposed for the “peptide prepulse” assay above.
The “processed antigen assay” was carried out under essentially the same conditions as the “peptide prepulse assay”, with the following modifications. Untreated APC were incubated at 1×10^6/mL in 24-well plates (1 mL/well) with native protein antigen for 8 h. Following that incubation, the pulsed APC were washed, treated with mitomycin C, and washed again. AE101 series peptide was added at 64 μM, 16 μM, 4 μM, and 1 μM concentrations for 24 h in the presence of the T cell hybridoma specific for the antigenic peptide. Interleukin release from these cultures was measured by proliferation of HT-2 cells to interleukins in supernatants transferred from the primary culture. The baseline T cell response was measured by culturing T hybridoma cells with the native antigen-prepulsed APC in the absence of AE101 series peptides.
The “processed antigen assay” was carried out under essentially the same conditions as the “peptide prepulse” assay, with the following modifications. Untreated APC were incubated at 1×10^6/mL in 24-well plates (1 mL/well) with native protein antigen for 8 h. Following incubation, the pulsed APC were washed, treated with mitomycin C, and were washed again. The assay conditions were then as described for “peptide prepulse” above. The baseline T cell response was measured by culturing T hybridoma cells with the native antigen-prepulsed APC in the absence of AE101 peptides.
Table 2.9: Activities of substitution series at Leucine^80 in AE114 in a processed antigen assay. […] The results in this assay constitute, relatively, a mirror image of the result in the simultaneous assay (Example 1, Table 7) and parallel those of the antigenic peptide prepulse assay (Example 5, Table 24). Untreated APC were incubated with native HEL, instead of antigenic peptide, for 8 h. After incubation, the pulsed cells were washed and mitomycin C treated before being cocultured with AE-peptides and T cell hybridomas. Wells containing only T cells and native HEL-prepulsed APC were used to determine the Baseline response, or 1, in the absence of AE peptides. The concentration of AE peptide used was 64 μM for these assays. The supernatant dilutions used in the HT-2 cell assay were 1:4 (first value) and 1:8 (second value).

[1] = Table 30, native HEL prepulse 10 μM, supernatant dilution 1:8
[2] = native HEL prepulse 10 μM, supernatant dilution 1:4
[3] = Table 32, native HEL prepulse 20 μM, supernatant dilution 1:4
[4] = Table 33, native HEL prepulse 10 μM, supernatant dilution 1:8

Ac-LRMK Q PK-NH2 (Ac-LRMKQPK-NH2) [AE233]
T cell response relative to baseline (None = 1.0), 5 μM HEL E^d, first value: 0.48, | T cell response relative to baseline (None = 1.0), 5 μM HEL E^d, second value: 0.36 | T cell response relative to baseline (None = 1.0), 10 μM HEL E^d, first value (native HEL prepulse 10 μM): 0.53, | T cell response relative to baseline (None = 1.0), 10 μM HEL E^d, second value (native HEL prepulse 10 μM): 0.47 | T cell response relative to baseline (None = 1.0), 20 μM HEL E^d, first value (native HEL prepulse 20 μM): 0.74, | T cell response relative to baseline (None = 1.0), 20 μM HEL E^d, second value (native HEL prepulse 20 μM): 0.68

Ac-LRMK Y PK-NH2 (Ac-LRMKYPK-NH2; not fully specified; printed as Ac-LRMK Y PK-NH2) [AE235]
T cell response relative to baseline (None = 1.0), 5 μM HEL E^d, first value: 0.33, | T cell response relative to baseline (None = 1.0), 5 μM HEL E^d, second value: 0.38 | T cell response relative to baseline (None = 1.0), 10 μM HEL E^d, first value (native HEL prepulse 10 μM): 0.42, | T cell response relative to baseline (None = 1.0), 10 μM HEL E^d, second value (native HEL prepulse 10 μM): 0.39 | T cell response relative to baseline (None = 1.0), 20 μM HEL E^d, first value (native HEL prepulse 20 μM): 0.71, | T cell response relative to baseline (None = 1.0), 20 μM HEL E^d, second value (native HEL prepulse 20 μM): 0.56 | T cell response relative to baseline (None = 1.0), E^d [1]: 0.19 | T cell response relative to baseline (None = 1.00), E^d [2]: 0.53 | T cell response relative to baseline (None = 1.0), E^d [3]: 0.46 | T cell response relative to baseline (None = 1.0), E^d [4]: 0.45 | Activity in processed antigen assay, E^d (baseline = 1.0): 0.19

Ac-LRMK l PK-NH2 [AE164]
T cell response relative to baseline (None = 1.0), E^d [1]: 0.64

Ac-LRMKLP F-NH2 (Ac-LRMKLPF-NH2) [AE248]
T cell response relative to baseline (None = 1.00), E^d [2]: 0.30

Ac-LRMKLP N-NH2 (Ac-LRMKLPN-NH2) [AE246]
T cell response relative to baseline (None = 1.0), E^d [3]: 0.72

Ac-LRMKLP k-NH2 [AE166]
T cell response relative to baseline (None = 1.0), E^d [1]: 0.36

Ac-LRMKLPK-NH2 [AE114]
T cell response relative to baseline (None = 1.0), 5 μM HEL E^d, first value: 0.23, | T cell response relative to baseline (None = 1.0), 5 μM HEL E^d, second value: 0.37 | T cell response relative to baseline (None = 1.0), 10 μM HEL E^d, first value (native HEL prepulse 10 μM): 0.29, | T cell response relative to baseline (None = 1.0), 10 μM HEL E^d, second value (native HEL prepulse 10 μM): 0.28 | T cell response relative to baseline (None = 1.0), 20 μM HEL E^d, first value (native HEL prepulse 20 μM): 0.53, | T cell response relative to baseline (None = 1.0), 20 μM HEL E^d, second value (native HEL prepulse 20 μM): 0.44 | T cell response relative to baseline (None = 1.0), E^d [1]: 0.22 | T cell response relative to baseline (None = 1.00), E^d [2]: 0.49 | T cell response relative to baseline (None = 1.0), E^d [3]: 0.40 | T cell response relative to baseline (None = 1.0), E^d [4]: 0.37 | Activity in processed antigen assay, E^d (baseline = 1.0): 0.22

Ac-LRMKLP[Cit]-NH2 [AE241]
T cell response relative to baseline (None = 1.0), E^d [3]: 0.63

Ac-LRMK[Orn]PK-NH2 [AE225]
T cell response relative to baseline (None = 1.0), 5 μM HEL E^d, first value: 0.26, | T cell response relative to baseline (None = 1.0), 5 μM HEL E^d, second value: 0.38 | T cell response relative to baseline (None = 1.0), 10 μM HEL E^d, first value (native HEL prepulse 10 μM): 0.32, | T cell response relative to baseline (None = 1.0), 10 μM HEL E^d, second value (native HEL prepulse 10 μM): 0.30 | T cell response relative to baseline (None = 1.0), 20 μM HEL E^d, first value (native HEL prepulse 20 μM): 0.59, | T cell response relative to baseline (None = 1.0), 20 μM HEL E^d, second value (native HEL prepulse 20 μM): 0.48

Ac-LRNKNPF-NH2 [AE348]
T cell response relative to baseline (None = 1.00), E^d [2]: 0.81

Ac-LRNKNPK-NH2 [AE349]
T cell response relative to baseline (None = 1.00), E^d [2]: 0.64

Ac-LR[Orn]KLPK-NH2 [AE195]
T cell response relative to baseline (None = 1.00), E^d [2]: 0.31

Ac-L[Cit]MKNPK-NH2 [AE342]
T cell response relative to baseline (None = 1.00), E^d [2]: 0.64

Ac-L[Cit]NKLPK-NH2 [AE343]
T cell response relative to baseline (None = 1.00), E^d [2]: 0.69

Ac-Y K MKLPKSAK-NH2 [AE134]
T cell response relative to baseline (None = 1.0), E^d [3]: 0.50

Ac-Y[Cit]MKLPKSAK-NH2 [AE131]
T cell response relative to baseline (None = 1.00), E^d [2]: 0.49

Ac-Y[hArg]MKLPKSAK-NH2 [AE132]
T cell response relative to baseline (None = 1.0), E^d [3]: 0.48
